These results are taken from publication PMC6205457.

In experiment [1] the target is biotinylated mouse MCL1 (amino acids 152-308) (mouse) (UniProt P97287). Description: SPR.
The next experiment deals with MCL1 (UniProt P97287). Description: SPR.

As to PUMA27 I137tBu (peptide), the Kd in experiment [1] was 7 nM. In other words, the single-digit nanomolar range.
Turning to “PUMA 27-aa wild-type peptide (pseudo wild-type, M144A)”, in the experiment with MCL1, the Kd was found to be 4 nM.
On the same count and under the same terms, the result for “rPUMA (redesigned PUMA peptide: A139tBu, Q140Y, A144Cha, A145G, Y152Bzt)” reads under 0.16 nM.
